Measurements published in US20050245445A1 (BURNHAM INSTITUTE FOR MEDICAL RESEARCH, published 2005).
Where no end group is shown, it is not given here.

B1: fluorescein-conjugated RGR peptide (CRGRRST) (peptide)
peptide: CRGRRST
modifications: also: fluorescein-conjugated (site of attachment not given here)
notes: Synthetic linear peptide made by Fmoc chemistry and injected intravenously into RIP1-Tag2 mice; also called RGR-FITC; fluorescein-conjugated CRGRRST peptide
B2: RGR phage (T7 phage displaying the RGR peptide CRGRRST) (peptide)
peptide: CRGRRST

Assays:
[1] = target: T1, PDGFRβ in RIP1-Tag2 mouse tumor tissue (mouse, UniProt P05622 32-1098); assay: co-localization of i.v. injected peptide with anti-PDGFRβ immunostaining in RIP1-Tag2 tumor sections
T1 construct: whole, on cells; Endogenous receptor in tissue, seen only by immunostaining; also called PDGFRb (CD140b)
T1 sequence (P05622 32-1098): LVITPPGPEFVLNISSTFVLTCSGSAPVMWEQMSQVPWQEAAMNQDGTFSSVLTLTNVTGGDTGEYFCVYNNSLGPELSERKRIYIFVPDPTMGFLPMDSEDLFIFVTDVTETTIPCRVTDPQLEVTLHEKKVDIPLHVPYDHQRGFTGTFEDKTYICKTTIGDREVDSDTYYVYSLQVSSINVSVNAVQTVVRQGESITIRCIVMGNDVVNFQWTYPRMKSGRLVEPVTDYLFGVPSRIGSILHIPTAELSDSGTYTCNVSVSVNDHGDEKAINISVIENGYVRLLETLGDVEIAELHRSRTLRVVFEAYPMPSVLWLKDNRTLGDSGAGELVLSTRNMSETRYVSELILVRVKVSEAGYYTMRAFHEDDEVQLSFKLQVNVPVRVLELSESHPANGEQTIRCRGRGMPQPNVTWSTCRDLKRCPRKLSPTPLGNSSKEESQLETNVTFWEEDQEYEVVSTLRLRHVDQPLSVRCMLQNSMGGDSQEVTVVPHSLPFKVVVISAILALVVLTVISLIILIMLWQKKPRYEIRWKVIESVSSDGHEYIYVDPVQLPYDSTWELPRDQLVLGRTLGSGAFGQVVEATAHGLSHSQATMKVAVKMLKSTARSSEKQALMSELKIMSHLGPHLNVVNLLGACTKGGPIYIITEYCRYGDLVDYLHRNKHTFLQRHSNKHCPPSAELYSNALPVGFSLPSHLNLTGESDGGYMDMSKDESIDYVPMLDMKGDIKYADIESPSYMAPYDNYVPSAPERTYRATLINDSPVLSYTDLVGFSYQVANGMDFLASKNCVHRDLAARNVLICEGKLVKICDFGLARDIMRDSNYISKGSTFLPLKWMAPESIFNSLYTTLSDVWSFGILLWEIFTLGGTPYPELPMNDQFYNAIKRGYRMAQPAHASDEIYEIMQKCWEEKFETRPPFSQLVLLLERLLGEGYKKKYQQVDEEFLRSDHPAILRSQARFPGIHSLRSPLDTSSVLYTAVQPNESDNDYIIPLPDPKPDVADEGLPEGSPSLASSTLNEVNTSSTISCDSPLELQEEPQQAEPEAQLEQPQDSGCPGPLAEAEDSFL
Description: For immunohistochemistry, frozen slides were pre-incubated with blocking buffer (1×PNB from NEN Biosciences) for one hour, washed several times in 1×PBS and incubated with the primary antibody of interest overnight at 4° C. The cell-specific antibodies used were rat monoclonal anti-mouse CD31 (1:200; BD Pharmingen), rat monoclonal anti-mouse MECA-32 (1:200; BD Pharmingen), rabbit polyclonal anti-mouse NG2 (1:200; Chemicon), and rat monoclonal anti-mouse PDGFRb (CD140b) (1:200; eBioscience). The corresponding secondary antibodies; Cy-3 donkey anti-rabbit IgG and Rhodamine Red donkey anti-rat IgG (Jackson ImmunoResearch), were used at a 1:200 dilution and incubated for one hour at room temperature. The following species-matched immunoglobulins were used as negative controls; rabbit IgG (Vector Laboratories) and rat IgG (Jackson ImmunoResearch) at a 1:200 dilution. The slides were washed several times in 1×PBS and mounted in Vectashield Mounting Medium with DAPI (Vector Laboratories). Hematoxylin and eosin (H&E) staining was performed for histological grading of adjacent sections by standard methods, and lesions were graded as previously described (Lopez and Hanahan, 2002).
In contrast, no binding above background was detected toward cells transfected with vascular endothelial growth factor receptor 2 (VEGFR2) (FIG. 5A).

[2] = target: PDGFRβ overexpressed on transfected 293T cells; assay: phage binding to transfected 293T cells, 2 hours at 4° C., bound phage counted by plaque assay

Binder | binding result [1] | fold binding to PDGFRβ-transfected cells over non-transfected cells [2]
B1 | binds | –
B2 | – | 20 fold
